From publication PMC10144703, “Molecular Mechanism of Sirtuin 1 Inhibition by Human Immunodeficiency Virus 1 Tat Protein” (Life, 2023)

Molecular target: human full-length Sirt1 (human) (UniProt Q96EB6)
Sequence (Q96EB6 whole entry): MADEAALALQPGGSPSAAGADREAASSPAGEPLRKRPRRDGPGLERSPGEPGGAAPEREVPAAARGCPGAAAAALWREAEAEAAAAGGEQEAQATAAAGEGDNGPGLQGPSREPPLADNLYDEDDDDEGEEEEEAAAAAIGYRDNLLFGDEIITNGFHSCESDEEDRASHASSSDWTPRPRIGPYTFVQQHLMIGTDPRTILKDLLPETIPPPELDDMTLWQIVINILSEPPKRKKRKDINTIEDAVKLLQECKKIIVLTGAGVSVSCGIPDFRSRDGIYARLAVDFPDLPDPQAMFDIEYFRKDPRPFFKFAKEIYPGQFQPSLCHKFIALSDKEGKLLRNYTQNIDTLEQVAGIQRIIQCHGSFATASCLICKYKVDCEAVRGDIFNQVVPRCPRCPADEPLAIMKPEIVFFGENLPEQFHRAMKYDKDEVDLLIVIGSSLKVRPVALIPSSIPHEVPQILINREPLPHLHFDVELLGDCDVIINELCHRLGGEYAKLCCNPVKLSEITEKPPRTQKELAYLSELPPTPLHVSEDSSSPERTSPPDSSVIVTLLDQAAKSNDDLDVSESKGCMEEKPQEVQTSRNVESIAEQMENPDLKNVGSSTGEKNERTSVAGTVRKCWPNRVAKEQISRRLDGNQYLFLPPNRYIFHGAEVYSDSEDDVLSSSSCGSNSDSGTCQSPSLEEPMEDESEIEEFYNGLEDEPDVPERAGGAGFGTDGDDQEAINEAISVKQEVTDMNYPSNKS

Substance	inhibition of fl-Sirt1 in the FdL assay at 100 µM FdL-1; IC50 [µM]	inhibition of fl-Sirt1 in the FdL assay at 100 µM FdL-1; potency (IC50) [µM]
Tat-Cys^−-(1–63) (from UniProt P12506 1-63) (domain or fragment)	10	–
Tat-Cys^−-(21–63) (from UniProt P12506 21-63) (domain or fragment)	–	30
